# Where no end group is shown, it is not given here. The star is where a group is joined. DTPA = O=C(O)CN(CCN(CC(=O)O)CC(=O)O)CCN(CC(=O)O)CC(=O)*
# Tests used:
# [1] = target: LRR domain of RXFP1; assay: Affinity for the LRR domain predicted from the titration data; design: species or system human; details: predicted from the RXFP1(1–72) titration data
# [2] = target: T1, RXFP1 F50A^ins (Homo sapiens, UniProt Q9HBX9, INS72A); assay: Eu-H2 relaxin saturation binding assay, transfected HEK293T cells; details: F50A^Ins-RXFP1 versus wild-type RXFP1
# T1 construct: transiently transfected human embryonic kidney (HEK) 293T cells expressing full-length RXFP1 and mutants; expressed in transfected cells; host or cells: HEK293T
# T1 sequence (Q9HBX9 with tags, fused parts or gaps INS72A limits assumed): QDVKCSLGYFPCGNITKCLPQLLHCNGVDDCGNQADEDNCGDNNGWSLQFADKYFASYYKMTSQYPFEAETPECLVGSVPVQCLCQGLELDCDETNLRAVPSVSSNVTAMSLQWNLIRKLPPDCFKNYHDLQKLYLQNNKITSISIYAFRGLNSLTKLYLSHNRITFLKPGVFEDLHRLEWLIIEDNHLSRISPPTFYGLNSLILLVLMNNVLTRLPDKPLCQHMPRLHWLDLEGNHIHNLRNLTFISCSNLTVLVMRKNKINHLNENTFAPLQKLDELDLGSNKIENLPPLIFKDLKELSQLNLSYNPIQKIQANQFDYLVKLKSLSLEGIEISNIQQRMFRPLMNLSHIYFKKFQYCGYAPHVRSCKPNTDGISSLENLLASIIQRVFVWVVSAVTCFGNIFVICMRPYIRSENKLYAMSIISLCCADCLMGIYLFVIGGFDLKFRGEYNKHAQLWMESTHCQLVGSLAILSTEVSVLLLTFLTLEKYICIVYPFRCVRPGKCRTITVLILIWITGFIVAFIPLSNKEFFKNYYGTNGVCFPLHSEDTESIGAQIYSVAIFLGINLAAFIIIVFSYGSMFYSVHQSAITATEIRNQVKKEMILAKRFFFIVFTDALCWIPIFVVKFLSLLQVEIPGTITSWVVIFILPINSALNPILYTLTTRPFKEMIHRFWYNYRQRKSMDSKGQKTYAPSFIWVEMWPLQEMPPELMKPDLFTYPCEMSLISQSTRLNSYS
# [3] = target: T2, relaxin family peptide receptor-1 (RXFP1), wild type, full length (human, UniProt Q9HBX9 23-757); assay: europium-labelled ligand saturation binding on cells (time-resolved fluorescence); HEK293T cells transiently transfected with receptor, 96-well plates; increasing Eu-H2 relaxin (maximum 15 nM) with or without 1 μM unlabelled H2 relaxin, 1 h, room temperature; 20 mM HEPES pH 7.5, 1.5 mM CaCl2, 50 mM NaCl, 0.01% NaN3, 1% BSA; one-site fit; details: one partner purified
# T2 construct: also called wild-type RXFP1; source: HEK293T, transiently transfected, on cells; not shown: FLAG, N-terminal, kept
# T2 sequence (looked up): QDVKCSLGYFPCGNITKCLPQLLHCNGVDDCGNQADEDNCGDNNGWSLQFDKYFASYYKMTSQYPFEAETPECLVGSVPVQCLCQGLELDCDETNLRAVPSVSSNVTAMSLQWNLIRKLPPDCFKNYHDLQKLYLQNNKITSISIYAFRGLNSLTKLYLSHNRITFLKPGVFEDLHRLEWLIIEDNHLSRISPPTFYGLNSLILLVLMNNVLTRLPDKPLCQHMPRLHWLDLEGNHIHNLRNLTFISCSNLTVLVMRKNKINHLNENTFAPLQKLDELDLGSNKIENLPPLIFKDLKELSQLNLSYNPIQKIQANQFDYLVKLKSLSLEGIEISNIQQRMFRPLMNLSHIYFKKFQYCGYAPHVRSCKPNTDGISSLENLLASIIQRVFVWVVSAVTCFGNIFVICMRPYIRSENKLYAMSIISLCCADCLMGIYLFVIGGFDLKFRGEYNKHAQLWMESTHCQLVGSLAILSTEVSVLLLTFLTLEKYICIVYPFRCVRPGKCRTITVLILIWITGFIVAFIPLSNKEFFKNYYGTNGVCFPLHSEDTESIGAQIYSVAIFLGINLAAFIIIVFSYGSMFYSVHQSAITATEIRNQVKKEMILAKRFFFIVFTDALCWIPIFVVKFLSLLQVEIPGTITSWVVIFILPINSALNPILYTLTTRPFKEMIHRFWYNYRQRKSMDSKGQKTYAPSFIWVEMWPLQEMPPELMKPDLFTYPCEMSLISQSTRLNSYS
# [4] = target: T3, RXFP1_((1–72)) (human); assay: NMR titration; 2D 1H-15N HSQC; 50 μM 15N-labelled RXFP1(1–72) titrated with 25-500 μM H2 relaxin; 50 mM imidazole, 10 mM CaCl2, pH 6.8, 25 °C; fit of the shifts of Asp51, Ala55 and Thr61
# T3 sequence (Q9HBX9 1-72, looked up): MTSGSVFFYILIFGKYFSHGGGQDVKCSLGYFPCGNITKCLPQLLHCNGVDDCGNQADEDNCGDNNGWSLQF
molecule,measurement,setting,value
H2 relaxin: two-chain 6-kDa peptide hormone structurally related to insulin; recombinant human gene-2 H2 relaxin provided by Corthera,Kd,[1],~1000 nM
same,loss of binding to H2 relaxin,[2],25 fold
"Europium-labelled H2 relaxin (ligand, human, not fully specified; ends and bridges not checked; also: DTPA cage loaded with Eu^3+, A chain of human gene-2 (H2) relaxin; numbers count on: the A chain; B chain of human gene-2 (H2) relaxin; numbers count on: the B chain; also called Eu-H2 relaxin; Eu-H2) chain 1: {DTPA}-QLYSALANKCCHVGCTKRSLARFC chain 2: DSWMEEVIKLCGRELVRAQIAICGMSTWS",Kd,[3],0.57 nM
"H2 relaxin (ligand, human) chain 1: QLYSALANKCCHVGCTKRSLARFC chain 2: DSWMEEVIKLCGRELVRAQIAICGMSTWS",Kd,[4],200000 nM

# Reference: article PMC4837482, “The complex binding mode of the peptide hormone H2 relaxin to its receptor RXFP1” (Nature Communications, 2016)
